Measured values taken from patent publication US20190284280A1 (ANAPTYSBIO, published 2019).

Columns and labels:
[1] = target: T1, soluble cynomolgus monkey TIM-3 fusion (cynomolgus monkey, UniProt A0A2K5U3G7 22-195); assay: SPR Biacore T200; captured TIM-3 fusion, antibody flowed over; 1:1 model
T1 construct: The SPR method describes only the human mIgG2a Fc fusion; not shown: mIgG2a Fc i
T1 sequence: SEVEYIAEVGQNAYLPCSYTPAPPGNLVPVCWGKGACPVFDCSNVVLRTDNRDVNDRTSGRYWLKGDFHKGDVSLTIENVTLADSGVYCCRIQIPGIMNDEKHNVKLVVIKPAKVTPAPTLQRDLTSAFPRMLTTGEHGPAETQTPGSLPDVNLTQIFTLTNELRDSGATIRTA

[2] = target: T2, native human TIM-3 stably transfected in CHO-K1 cells (human, UniProt Q8TDQ0 22-301); assay: flow cytometry on human TIM-3 expressing CHO-K1 cells, PE anti-human IgG4 detection
T2 construct: whole, on cells; also called cell-surface human TIM-3; human TIM-3 expressing CHO-K1 cells
T2 sequence (looked up): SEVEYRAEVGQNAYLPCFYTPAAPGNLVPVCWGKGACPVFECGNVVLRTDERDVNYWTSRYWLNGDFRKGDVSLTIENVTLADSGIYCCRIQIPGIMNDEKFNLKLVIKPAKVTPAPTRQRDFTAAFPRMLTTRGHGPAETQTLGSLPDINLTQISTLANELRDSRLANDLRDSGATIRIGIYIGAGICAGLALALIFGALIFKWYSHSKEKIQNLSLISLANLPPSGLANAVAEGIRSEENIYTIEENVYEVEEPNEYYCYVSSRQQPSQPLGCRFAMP
Protocol: (§1) Flow cytometry studies were performed with CHO-K1 cell line clones in which native human or cynomolgus monkey TIM-3 was stably transfected. An exemplary anti-TIM-3 antibody (having heavy and light chains as set forth in SEQ ID NOs: 1 & 2, respectively) was diluted in 3-fold dilutions. Dilutions of exemplary antibody were added to human or cynomolgus monkey TIM-3 expressing CHO-K1 cells (1E5 cells) and incubated on ice. Cells were washed twice and incubated on ice with PE-conjugated goat anti-human IgG4 to detect antibody binding. Cells were washed and resuspended in the presence of propidium iodide to exclude dead cells and fixed before fluorescence was analyzed on a BD FACSArray (BD Biosciences). Data were analyzed for median fluorescence intensity, graphed, and curves fitted for EC₅₀ value calculation in GraphPad Prism (GraphPad Software, Inc.) using a non-linear (sigmoidal) regression analysis.

[3] = target: T3, Dimeric soluble human TIM-3 mIgG2a Fc (human; mouse, UniProt Q8TDQ0 22-200); assay: SPR Biacore T200; TIM-3 fusion captured on anti-mouse IgG Fc, antibody flowed over; 1:1 model
T3 construct: Captured on an anti-mouse IgG (Fc-specific) Biacore CM5 surface; also called soluble TIM-3 fusion; not shown: mouse IgG2a Fc
T3 sequence (looked up): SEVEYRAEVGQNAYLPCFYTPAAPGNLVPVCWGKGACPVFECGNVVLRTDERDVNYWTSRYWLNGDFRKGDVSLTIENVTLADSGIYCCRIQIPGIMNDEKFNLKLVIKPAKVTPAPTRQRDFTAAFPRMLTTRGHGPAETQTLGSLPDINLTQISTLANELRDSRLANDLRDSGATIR
Protocol: SPR analyses were carried out using a Biacore T200, and kinetic constants were determined using Biacore T200 Evaluation software. […] GE anti-mouse IgG (Fc-specific) was immobilized on a Biacore CM5 chip using EDC-activated amine coupling chemistry. Dimeric soluble human TIM-3 mIgG2a Fc was then captured onto this surface to a target capture level of ˜70 RU or less. Next an exemplary anti-TIM-3 antibody (having heavy and light chains as set forth in SEQ ID NOs: 1 & 2, respectively) was flowed over the surface with captured antigen (TIM-3 fusion). Capture and analyte binding were performed in HBS-EP+ buffer. The captured antigen and antibodies were removed between each cycle to ensure a fresh binding surface for each concentration of […]. The resulting sensorgrams were fitted globally using a 1:1 binding model to calculate on- and off-rates (kassoc and kdissoc, respectively), and dissociation constants as a measure of overall affinity (KD).

[4] = target: T4, native cynomolgus monkey TIM-3 stably transfected in CHO-K1 cells (cynomolgus monkey, UniProt A0A2K5U3G7 22-294); assay: flow cytometry on cynomolgus monkey TIM-3 expressing CHO-K1 cells, PE anti-human IgG4 detection
T4 construct: whole, on cells; also called cell-surface cynomolgus monkey TIM-3; cynomolgus monkey TIM-3 expressing CHO-K1 cells
T4 sequence: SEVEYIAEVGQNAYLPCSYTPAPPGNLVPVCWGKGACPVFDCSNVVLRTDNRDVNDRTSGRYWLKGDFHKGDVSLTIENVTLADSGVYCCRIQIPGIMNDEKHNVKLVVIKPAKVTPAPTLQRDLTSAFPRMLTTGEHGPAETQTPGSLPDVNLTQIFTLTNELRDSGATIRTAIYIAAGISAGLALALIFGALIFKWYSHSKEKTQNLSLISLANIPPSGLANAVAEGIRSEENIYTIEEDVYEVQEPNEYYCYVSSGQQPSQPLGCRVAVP
Protocol: as §1

B1: exemplary anti-TIM-3 antibody (having heavy and light chains as set forth in SEQ ID NOs: 1 & 2, respectively) (antibody, human IgG4 S228P, kappa, V domains shown)
VH: EVQLLESGGGLVQPGGSLRLSCAAASGFTFSSYDMSWVRQAPGKGLDWVSTISGGGTYTYYQDSVKGRFTISRDNSKNTLYLQMNSLRAEDTAVYYCASMDYWGQGTTVTVSS
VL: DIQMTQSPSSLSASVGDRVTITCRASQSIRRYLNWYHQKPGKAPKLLIYGASTLQSGVPSRFSGSGSGTDFTLTISSLQPEDFAVYYCQQSHSAPLTFGGGTKVEIKR
modifications: N-glycosylation at asparagine residue 290 of SEQ ID NO:1
notes: Humanized IgG4 (human IGHG4*01) / kappa (IGKC*01); also called exemplary humanized monoclonal anti-TIM-3 antibody; anti-TIM-3 mAb
[1]
  Kd: 17 pM
  koff: 0.00019 s⁻¹
  kon: 1.1e+07 M⁻¹ s⁻¹
[2]
  EC50: 170 pM
[3]
  Kd: 7 pM
  koff: 0.00011 s⁻¹
  kon: 1.5e+07 M⁻¹ s⁻¹
[4]
  EC50: 270 pM
